Reference: the supplement of paper PMC12764529
± gives the half width of the 95% confidence interval.

What was measured:
[1] = folding stability dG unfold (combined trypsin and chymotrypsin); higher = more stable
How it was run: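 Bayesian fitting of sequencing counts gave K50 for each design. Unfolding free energy followed by setting this against a sequence-predicted unfolded-state K50 and a shared folded-state K50, either per protease or with trypsin and chymotrypsin combined. The designs, under 80 residues and lacking cysteine, were digested in a PA-tagged cDNA display format at 11 threefold-diluted protease concentrations and without protease, and only those with AlphaFold2 dimer inter-PAE above 15 were kept.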

[2] = folding stability dG unfold from trypsin proteolysis; higher = more stable
Description: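 Folding stability of de novo designed mini-proteins (<80 aa, no Cys; designed by TrROS, TrMRF, ProteinMPNN and the joint model) was measured by cDNA display proteolysis with trypsin and chymotrypsin. Each protease was used at 11 concentrations in a threefold dilution series plus a no-protease condition. K50 was inferred by Bayesian fitting of sequencing counts, and dG unfold was derived against a sequence-predicted unfolded-state K50 (Tsuboyama et al. method). Sequences shown include variable-length N-terminal GS-type padding (SAGGSAGG...) inside a display construct carrying a PA tag. Rows were kept only if the AF2 dimer inter-PAE was >15, to exclude likely homo-oligomers.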

Sequence	folding stability dG unfold [1] [kcal/mol]	folding stability dG unfold [2] [kcal/mol]
SAGGSAGGSAGGSDELLKELAQENGMKVTAEPMPEEGHFNIEVQSPNGKPIEIEIPLDDSAGGSAGGSAGGS [r4_121_TrROS]	-0.0556 ± 0.26	0.128 ± 0.15
SAGGSAGGSAGGSGAEEAAKAVREAFPELGVPILVEVGYIPGTKELPVRVYIPSTRLELSAGGSAGGSAGGS [r4_312_TrMRF]	< -1	-0.294 ± 0.055
SAGGSAGGSAGGSGMPQPTTVLTTEYYPPGVVVKKDIVYSPSGGAEEVEVSFYPSPELLSAGGSAGGSAGGS [r4_57_JUSTAS]	< -1	-1.08 ± 0.2
SAGGSAGGSAGGSGNFDKDGNKLTVYYPNTKKPVTIDFPVEDIFEFIKNLPPNVAKVDASAGGSAGGSAGGS [r4_282_TrMRF]	-0.869 ± 0.4	-0.201 ± 0.049
SAGGSAGGSAGGSGSMVVEKVSPEPNVTKTIFFEPPEEGLVITVETLEGDTWSSQIILQSAGGSAGGSAGGS [r4_484_JUSTAS]	-0.0129 ± 0.3	0.657 ± 0.097
SAGGSAGGSAGGSIEIDVNPEAGQLKIEIEMPMPNPNGKPRGPMRMEQEFRIDDPEDIKSAGGSAGGSAGGS [r4_10_TrROS]	< -1	-0.641 ± 0.33
SAGGSAGGSAGGSMAVPQTVEVEAGAKPILVTTYRLPPDGAVVRIEYPGPAVVLEEELESAGGSAGGSAGGS [r10_630_JUSTAS]	< -1	-0.445 ± 0.2
SAGGSAGGSAGGSMIVDTKVPENSVAYTPDGKKIGPEEVKKALEEGLGYIGSTPVPPGLSAGGSAGGSAGGS [r4_47_JUSTAS]	-0.835 ± 0.31	0.127 ± 0.029
SAGGSAGGSAGGSMKVEPLPHPDRPVTVETTPDSITVTDPANPPATTTFSSSSTVSVDSSAGGSAGGSAGGS [r4_321_JUSTAS]	-0.505 ± 0.44	-0.122 ± 0.078
SAGGSAGGSAGGSMPKPKVIKVPVDPNVSKEEVAKEVLPKTGLNVESIEESEDVLYVLNSAGGSAGGSAGGS [r4_469_JUSTAS]	< -1	-1.11 ± 0.38
SAGGSAGGSAGGSNIILIPAKPGEEFKIKINGRPLKIQRDKDKPGYIMIEFPDGQWQPISAGGSAGGSAGGS [r4_488_TrROS]	-0.174 ± 0.24	-0.041 ± 0.2
SAGGSAGGSAGGSPEVVPVDHPDRELLLVRFPDSVVLTDPSAPGASRTFPADTDVVVDASAGGSAGGSAGGS [r4_321_TrMRF]	< -1	-1.37 ± 0.41
SAGGSAGGSAGGSSLSTVAPSPSGRLYVELDIDEPVVSPTPIPTGTGPVSGIIVSPVLLSAGGSAGGSAGGS [r10_92_JUSTAS]	< -1	-0.989 ± 0.31
SAGGSAGGSAGGSSTITIGDSEVSVTADPKAPVATASYPASGVTFTITRPDASVTITPTPSAGGSAGGSAGG [r7_156_JUSTAS]	< -1	-0.783 ± 0.42
SAGGSAGGSAGGTAKELVNEIAKEFMQDHPNQEIPIEVEVRTNGKPVKAEIPIRLPPGQSAGGSAGGSAGGS [r10_1204_TrROS]	< -1	-0.402 ± 0.07
SAGGSAGGSAGGWVFDSDDYPKFQDAAKDHGLKPKSINDDDNTMTVDPEDPNRIRDAINESAGGSAGGSAGG [r7_285_TrROS]	< -1	-0.147 ± 0.21
SAGGSAGGSAGKITIRNPENGYAIKIKFGDKEKTIPIDPDQIDEFLEKLPGIKVEPYPWKSAGGSAGGSAGG [r11_57_TrROS]	-0.899 ± 0.59	-0.574 ± 0.2
SAGGSAGGSAGMEDLVTVTETVETTDTLRDEGGTPTGTTTTTTTVTKLLSPEKVAALKEASAGGSAGGSAGG [r11_620_JUSTAS]	-0.85 ± 0.23	-0.116 ± 0.021
SAGGSAGGSAGMKIVAPSKEEAEKIAKELAKELGLPDEIKDLEIEVIPLKPTPDGGFIPYSAGGSAGGSAGG [r17_237_TrMRF]	-0.715 ± 0.22	-0.168 ± 0.17
SAGGSAGGSAGMKTYTVPLPGGDPALIEQTAQDIVEKIPGLEDHEVKVDAGDDGTLTIVESAGGSAGGSAGG [r17_324_JUSTAS]	< -1	-0.736 ± 0.16
SAGGSAGGSAGMKVVLTVPESEAAKPEVLEAKAQEIKEKHPGEEVEVEFITNPFPPGTPLSAGGSAGGSAGG [r11_743_JUSTAS]	-0.108 ± 0.1	0.456 ± 0.019
SAGGSAGGSAGMTLEEKLKEAEEKHKKEGGPATITITDPTATGVSKTYTVTIENEGLKVESAGGSAGGSAGG [r11_954_JUSTAS]	-0.132 ± 0.36	0.034 ± 0.055
SAGGSAGGSAGPKPEYIRIKIEMWNPDGNPREHDFTFPPGHKDQIENLADNYGFRVSIEKSAGGSAGGSAGG [r11_603_TrROS]	-0.281 ± 0.29	0.278 ± 0.13
SAGGSAGGSAGPKPIEFEDPDNGRKIEYWPEENQISIENPGDGKEKEYPMDSPEELKEWMSAGGSAGGSAGG [r11_936_TrROS]	< -1	0.117 ± 0.17

Sequence	folding stability dG unfold [1] [kcal/mol]	folding stability dG unfold [2] [kcal/mol]
SAGGSAGGSAGPMIKIGSTTRPFTPPLGGRLEYAPIDVDQSEEVAKEVAEELKPKGVIVNLSAGGSAGGSAG [r3_157_JUSTAS]	< -1	-0.774 ± 0.35
SAGGSAGGSAGPPIYWRIEFENPGKKHTMTIPRDMPVDDIKEIADEIAKRFPMPISIEPVSAGGSAGGSAGG [r11_515_TrROS]	-0.565 ± 0.25	-0.335 ± 0.22
SAGGSAGGSAGPPVLVSINPDENATVEVRTRPDGKPVLLFTVPKTGEVLVVHPDGKIDNSSAGGSAGGSAGG [r11_601_TrMRF]	-0.246 ± 0.35	-0.0916 ± 0.17
SAGGSAGGSAGSKTITFIMVHPDDGYISDMEMRYTDNGIEMEMEWIPVPKEDAEELKDLISAGGSAGGSAGG [r11_47_TrROS]	-0.044 ± 0.19	0.225 ± 0.036
SAGGSAGGSAGTSTTVTEKPDPNSNRTYTTTTVERTTADGTTTTVTTTVYPDSTTSTTTASAGGSAGGSAGG [r11_987_JUSTAS]	0.0978 ± 0.2	0.557 ± 0.094
SAGGSAGGSAHTIEDPDNNKKIEVHPPPNGNYMVEIERPDNGEKKTIMMPPDDVEEALNQISAGGSAGGSAG [r3_162_TrROS]	< -1	-0.139 ± 0.2
SAGGSAGGSAKEVEVEVEEELPGGYYRATVRLPGEEKPLEVVVKGPREDALKAAEELAKEESAGGSAGGSAG [r3_104_TrMRF]	< -1	-0.0768 ± 0.16
SAGGSAGGSAKITITAPPGETYRIKVKVKNENGEWKEVTRTIKVGEPLEDIEEVEIERIEPESAGGSAGGSA [r18_223_TrROS_Hall]	-0.146 ± 0.27	0.0462 ± 0.12
SAGGSAGGSAMIVVTLDDPEEAREAVRARFGPEVEITPLETTTVGDRVFTKIAVRVPPELASAGGSAGGSAG [r3_87_JUSTAS]	-0.395 ± 0.24	-0.351 ± 0.19
SAGGSAGGSAMLKVTVKVPGTSKDYDFNVPESVGKEEAEKRLEEEYPGAEVTEIVEIPGEELSAGGSAGGSA [r18_242_JUSTAS]	-0.469 ± 0.26	0.545 ± 0.027
SAGGSAGGSAMPIPALVLVERPLPDGETEEREIPVIVEPDKIDEIIEEAEKEGYKVKEVKASAGGSAGGSAG [r3_453_TrMRF]	< -1	-0.271 ± 0.06
SAGGSAGGSAMRVVEITVPPENPEELKREIAEAFPFEVEGEEVGDGSVTLRFILPEDVELGSAGGSAGGSAG [r3_457_TrMRF]	-0.212 ± 0.13	0.142 ± 0.097
SAGGSAGGSAPAEFPIEILEVERNPGNPMVEVGIKIPGDGRYIKIHFPPNGKIDIELVPLPSAGGSAGGSAG [r3_294_TrROS]	-0.29 ± 0.16	0.265 ± 0.1
SAGGSAGGSASSSVTITNRVTNPDTGLRYITIPSKGERVTLSPDESATIPVPPDAPVSVLGSSAGGSAGGSA [r18_329_JUSTAS]	< -1	-0.694 ± 0.24
SAGGSAGGSATITISLGPPEYIEVYDPANGVKRKFPASVPKEEVAAEIEKEYPDTPVVFTTDASAGGSAGGS [r12_423_JUSTAS]	-0.172 ± 0.32	0.394 ± 0.06
SAGGSAGGSAVKVIPFPFNEALDLLNSGEPKEIHVVGPPGWYMTVQFNPPDNNIEIDDPVPPSAGGSAGGSA [r18_400_TrROS]	0.194 ± 0.14	0.732 ± 0.043
SAGGSAGGSEGQPIIIKIKMENPGNGKKHKFDIMVPPGFKNAEEQANRLMNNFGPVKDVEIYPSAGGSAGGS [r12_942_TrROS]	< -1	-0.846 ± 0.3
SAGGSAGGSEPDFVVVDIPFPPDVPLEALVEFARSLPSVVVNLVDEEGRPVSIALPREAVERLASAGGSAGG [r6_791_TrMRF]	< -1	-0.347 ± 0.15
SAGGSAGGSETSIVFLEEEVLVEEEITLYRDGTPTRERRVRTERVVIRVPVKPEEDVNNPLLLSAGGSAGGS [r12_713_JUSTAS]	< -1	-0.765 ± 0.82
SAGGSAGGSGKTIIIPLPNGNVIKVEVEEGSVKITYPKPKKELIKVENPKNALKNIKTYSYKGSAGGSAGGS [r12_32_TrMRF]	< -1	-0.176 ± 0.32
SAGGSAGGSGSMAEVEAIVERAKELGLVPKSITTDPATNKPVVDLQPPSPELLEADPEILALLSAGGSAGGS [r12_482_JUSTAS]	< -1	-0.585 ± 0.23
SAGGSAGGSKIEMMHAIRDNGKPFFVRITMDIQPQKDPNGEPKVNFEPKIEIYDPDGKPIFEISAGGSAGGS [r20_224_TrROS]	0.392 ± 0.3	0.641 ± 0.14
SAGGSAGGSMEIVSTGSKEDAEEAVKEKVAAGEKARVVLRSPTDPTPVSEEEVTISEEELKEASAGGSAGGS [r12_241_JUSTAS]	< -1	-1.61 ± 0.88
